The text below walks through data of patent US20180326005A1 (HEAT BIOLOGICS, published 2018).

In test [1] the target is T1, human FcγR1A (human, UniProt P12314 16-288).
T1 construct: also called recombinant human FcγR1A
The test is described as follows: SPR summary table, row group FcγR1A.

Test [2] deals with T2, neonatal receptor FcRn (human, UniProt P55899 24-297; P61769 21-119).
T2 construct: also called recombinant human FcRn
Kind of test: SPR summary table, row group FcRn.

Test [3] concerns the target polyhistidine-tagged recombinant human CD47 (human) (UniProt Q08722). The test is described as follows: SPR summary table, row group CD47.
For test [4], the target named is T3, mouse PD-1-Fc (mouse, UniProt Q02242 25-169; P01868 98-324 = IgG part, limits assumed).
T3 construct: extracellular domain;domain: Fc; Control construct, tested as CHO-K1 culture medium; also called mPD-1-Fc; recombinant mouse PD1-Fc
Kind of test: ELISA: plate-bound mOX40-hFc, two-fold dilutions of CHO-K1 culture medium, detection with rabbit anti-mPD-1 and anti-rabbit IgG-HRP. From the text:
A rabbit polyclonal antibody to mPD-1 was used to detect the mPD-1 domain in the chimeric protein and subsequently detected using a horseradish peroxidase (HRP)-conjugated polyclonal antibody to rabbit IgG (H+L).
A rabbit polyclonal antibody to mPD-1 was used to detect the mPD-1 domain in the chimeric protein and subsequently detected using a horseradish peroxidase (HRP)-conjugated polyclonal antibody to rabbit IgG (H+L). […] A horseradish peroxidase (HRP)-conjugated polyclonal antibody to mouse IgG (H+L) was used for the detection of the bound proteins.
In general terms: In an ELISA, binding on a coated surface is turned into a signal by an enzyme label.

The target of test [5] is T4, human OX40 on cells (Jurkat/hOX40, activated human T cells) (human, UniProt P43489 29-277).
T4 construct: whole, on cells; also called Jurkat/OX40; cell surface expressed OX40
T4 sequence (looked up): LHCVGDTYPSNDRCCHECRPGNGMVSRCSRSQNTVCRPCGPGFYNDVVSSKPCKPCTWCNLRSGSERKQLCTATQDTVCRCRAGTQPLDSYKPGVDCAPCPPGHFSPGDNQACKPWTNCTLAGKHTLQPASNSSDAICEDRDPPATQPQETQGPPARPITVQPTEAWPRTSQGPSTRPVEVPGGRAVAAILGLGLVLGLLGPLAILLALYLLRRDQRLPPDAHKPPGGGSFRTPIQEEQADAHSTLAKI
Kind of test: flow cytometry, Jurkat-hOX40 against parental Jurkat cells, Fc-Fusions: PE-A. Background: A flow cytometer gives signals particle by particle.

For test [6], the target named is human PD-L1 on cells (CHO-K1/hPD-L1, HCC827, PC3, HeLa-PD-L1) (human, UniProt Q9NZQ7 19-290). The test is described as follows: cell-based or functional assay.
Test [7] deals with T5, FcγR2B (human, UniProt P31994 46-217, limits assumed).
T5 sequence (looked up): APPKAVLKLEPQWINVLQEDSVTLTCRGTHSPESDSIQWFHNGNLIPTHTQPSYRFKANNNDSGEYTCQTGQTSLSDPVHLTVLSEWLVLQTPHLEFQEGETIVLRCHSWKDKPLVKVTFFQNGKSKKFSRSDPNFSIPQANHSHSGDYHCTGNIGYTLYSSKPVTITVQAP
The test is described as follows: SPR, chip-bound Fc receptor. On the technique in general: SPR reads the build-up and loss of mass on a sensor chip optically.

Test [8] has as its target T2, neonatal receptor FcRn. The test is described as follows: SPR, chip-bound Fc receptor.
Test [9] has as its target T6, polyhistidine-tagged recombinant human OX40 (human, UniProt P43489 29-216).
T6 construct: also called recombinant OX40-his; hOX40-his; not shown: polyhistidine tag
T6 sequence (looked up): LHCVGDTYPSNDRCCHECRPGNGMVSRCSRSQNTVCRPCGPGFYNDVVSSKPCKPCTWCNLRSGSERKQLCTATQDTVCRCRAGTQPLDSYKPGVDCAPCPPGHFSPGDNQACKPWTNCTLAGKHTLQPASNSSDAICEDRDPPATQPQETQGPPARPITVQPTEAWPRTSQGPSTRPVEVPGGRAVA
The test is described as follows: SPR summary table, row group OX40. The source says: (§1) Specifically, polyhistidine-tagged versions of recombinant human PD-L1, PD-L2 and human OX40 was bound to ProteOn HTG tris-NTA chips (BIORAD).

Test [10] concerns the target T7, polyhistidine-tagged recombinant human PD-L1 (human, UniProt Q9NZQ7 19-239).
T7 construct: also called hPD-L1; not shown: polyhistidine tag
Kind of test: SPR summary table, row group PD-L1.
Description: as §1

The target in test [11] is T8, polyhistidine-tagged recombinant human PD-L2 (human, UniProt Q9BQ51 20-219).
T8 construct: not shown: polyhistidine tag
T8 sequence (looked up): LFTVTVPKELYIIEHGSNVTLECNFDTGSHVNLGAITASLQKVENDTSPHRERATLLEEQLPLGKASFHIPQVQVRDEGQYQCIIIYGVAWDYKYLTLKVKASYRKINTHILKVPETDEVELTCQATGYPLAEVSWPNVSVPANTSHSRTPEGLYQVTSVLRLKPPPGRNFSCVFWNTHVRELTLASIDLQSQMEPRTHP
The test is described as follows: SPR summary table, row group PD-L2.
Description: as §1

The target of test [12] is T7, polyhistidine-tagged recombinant human …. The test is described as follows: SPR, his-tagged ligand on ProteOn HTG tris-NTA chip.
Description: as §1
(§2) Specifically, polyhistidine-tagged versions of recombinant human CD47 and human OX40 was bound to ProteOn HTG tris-NTA chips (BIORAD).

For test [13], the target named is T8, polyhistidine-tagged recombinant human …. Described as above.
Description: as §1, §2

The target in test [14] is T6, polyhistidine-tagged recombinant human …. The test is described as above.
Description: as §1, §2

The target of test [15] is T1, human FcγR1A. Kind of test: SPR, chip-bound human FcγR1A, analyte in flow.
For test [16], the target named is T2, neonatal receptor FcRn. The test is described as follows: SPR summary table, row group FcRn; the text gives 73 nM for this pair.
Test [17] addresses T6, polyhistidine-tagged recombinant human …. The test is described as follows: SPR summary table, row group OX40.
Description: as §1
The source holds these as a separate data set.

Test [18] shares this target. The test is described as follows: SPR summary table, row group OX40.
Description: as §2
This is another data set of the same source.

Like-named read-outs stand apart in the source and are kept apart here.

T7 sequence (Q9NZQ7 19-239 limits assumed): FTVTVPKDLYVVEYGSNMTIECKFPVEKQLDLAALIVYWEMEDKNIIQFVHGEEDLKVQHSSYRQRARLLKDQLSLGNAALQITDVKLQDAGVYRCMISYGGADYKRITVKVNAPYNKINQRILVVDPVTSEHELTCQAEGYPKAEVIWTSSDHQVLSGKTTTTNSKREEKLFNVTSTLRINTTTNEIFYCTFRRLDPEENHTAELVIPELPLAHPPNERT
T1 sequence (P12314 16-288 limits assumed): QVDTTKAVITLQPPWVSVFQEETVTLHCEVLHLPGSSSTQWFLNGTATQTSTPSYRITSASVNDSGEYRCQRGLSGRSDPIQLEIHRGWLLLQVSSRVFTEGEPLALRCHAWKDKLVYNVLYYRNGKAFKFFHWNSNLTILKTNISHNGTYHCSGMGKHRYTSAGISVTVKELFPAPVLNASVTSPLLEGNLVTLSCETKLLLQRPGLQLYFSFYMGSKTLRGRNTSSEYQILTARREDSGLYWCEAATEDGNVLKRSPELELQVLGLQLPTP
polyhistidine-tagged recombinant human CD47 (human), sequence (Q08722 19-139 limits assumed): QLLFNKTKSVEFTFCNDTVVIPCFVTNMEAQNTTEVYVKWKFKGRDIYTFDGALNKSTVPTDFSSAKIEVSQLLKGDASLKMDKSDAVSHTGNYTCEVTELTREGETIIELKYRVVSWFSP
human PD-L1 on cells (CHO-K1/hPD-L1, HCC827, PC3, HeLa-PD-L1), sequence (Q9NZQ7 19-290): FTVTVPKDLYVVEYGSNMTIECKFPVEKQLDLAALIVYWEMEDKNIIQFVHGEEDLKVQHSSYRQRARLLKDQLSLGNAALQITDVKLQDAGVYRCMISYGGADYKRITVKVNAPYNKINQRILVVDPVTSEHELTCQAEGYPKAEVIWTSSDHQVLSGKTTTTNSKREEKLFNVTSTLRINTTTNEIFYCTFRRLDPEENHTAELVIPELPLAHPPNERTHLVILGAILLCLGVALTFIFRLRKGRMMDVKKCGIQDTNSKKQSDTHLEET
T3 sequence (Q02242 other isoform, or with tags, fused parts or gaps limits assumed): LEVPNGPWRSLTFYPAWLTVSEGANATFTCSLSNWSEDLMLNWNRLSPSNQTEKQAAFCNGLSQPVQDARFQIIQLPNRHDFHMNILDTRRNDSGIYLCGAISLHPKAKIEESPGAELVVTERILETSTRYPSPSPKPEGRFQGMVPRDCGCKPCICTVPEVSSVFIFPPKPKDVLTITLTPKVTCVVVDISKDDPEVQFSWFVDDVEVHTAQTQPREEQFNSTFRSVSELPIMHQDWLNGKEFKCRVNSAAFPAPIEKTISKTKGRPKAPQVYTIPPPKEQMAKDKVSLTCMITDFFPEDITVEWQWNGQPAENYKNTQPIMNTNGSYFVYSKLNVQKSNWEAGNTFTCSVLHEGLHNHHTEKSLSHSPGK

In general, Kd refers to the free concentration of one partner at which half of the binding sites on the other are occupied at equilibrium, for simple one-to-one binding. The term koff denotes the rate constant with which the complex falls apart. A word on the kon: it is the rate constant with which the complex forms. For the molecule human immunoglobulin IgG1 (antibody), in test [1], the Kd was determined as 17.7 nM, the koff was 0.00044 s⁻¹ and the kon is 24900 M⁻¹ s⁻¹. In [2], this molecule yielded a Kd of 4.87 nM, a koff of 0.0046 s⁻¹ and a kon of 945000 M⁻¹ s⁻¹.
Turning to CD172a-Fc (Fc fusion), in test [3], the Kd turned out to be 3.16 nM, the koff worked out at 0.00239 s⁻¹ and the on-rate constant (kon) was determined as 756000 M⁻¹ s⁻¹.

B1: recombinant mOX40 fused to human Fc (Fc fusion, mouse, UniProt P47741 20-211, looked up)
chain: VTARRLNCVKHTYPSGHKCCRECQPGHGMVSRCDHTRDTLCHPCETGFYNEAVNYDTCKQCTQCNHRSGSELKQNCTPTQDTVCRCRPGTQPRQDSGYKLGVDCVPCPPGHFSPGNNQACKPWTNCTLSGKQTRHPASDSLDAVCEDRSLLATLLWETQRPTFRPTTVQSTTVWPRTSELPSPPTLVTPEGP
notes: also called mOX40-hFc; not shown: human Fc
With B1, in [4], the binding result is given as “no binding (tested: 1:1 (undiluted culture medium))”.

B2: human PD1-Fc-TL1A (Fc fusion)
chain: LDSPDRPWNPPTFSPALLVVTEGDNATFTCSFSNTSESFVLNWYRMSPSNQTDKLAAFPEDRSQPGQDCRFRVTQLPNGRDFHMSVVRARRNDSGTYLCGAISLAPKAQIKESLRAELRVTERRAEVPTAHPSPSPRPAGQFQSKYGPPCPSCPAPEFLGGPSVFLFPPKPKDTLMISRTPEVTCVVVDVSQEDPEVQFNWYVDGVEVHNAKTKPREEQFNSTYRVVSVLTVLHQDWLSGKEYKCKVSSKGLPSSIEKTISNATGQPREPQVYTLPPSQEEMTKNQVSLTCLVKGFYPSDIAVEWESNGQPENNYKTTPPVLDSDGSFFLYSRLTVDKSSWQEGNVFSCSVMHEALHNHYTQKSLSLSLGKIEGRMDRAQGEACVQFQALKGQEFAPSHQQVYAPLRADGDKPRAHLTVVRQTPTQHFKNQFPALHWEHELGLAFTKNRMNYTNKFLLIPESGDYFIYSQVTFRGMTSECSEIRQAGRPNKPDSITVVITKVTDSYPEPTQLLMGTKSVCEVGSNWFQPIYLGAMFSLQEGDKLMVNVSDISLVDYTKEDKTFFGAFLL
notes: The entry includes the native leader; no cleavage site is stated; also called hPD1-Fc-TL1A
With B2, in test [5], the binding result is on record as “no binding”.

B3: SL-279252 (human PD-1-Fc-OX40L) (Fc fusion)
chain: LDSPDRPWNPPTFSPALLVVTEGDNATFTCSFSNTSESFVLNWYRMSPSNQTDKLAAFPEDRSQPGQDCRFRVTQLPNGRDFHMSVVRARRNDSGTYLCGAISLAPKAQIKESLRAELRVTERRAEVPTAHPSPSPRPAGQFQSKYGPPCPSCPAPEFLGGPSVFLFPPKPKDTLMISRTPEVTCVVVDVSQEDPEVQFNWYVDGVEVHNAKTKPREEQFNSTYRVVSVLTVLHQDWLSGKEYKCKVSSKGLPSSIEKTISNATGQPREPQVYTLPPSQEEMTKNQVSLTCLVKGFYPSDIAVEWESNGQPENNYKTTPPVLDSDGSFFLYSRLTVDKSSWQEGNVFSCSVMHEALHNHYTQKSLSLSLGKIEGRMDQVSHRYPRIQSIKVQFTEYKKEKGFILTSQKEDEIMKVQNNSVIINCDGFYLISLKGYFSQEVNISLHYQKDEEPLFQLKKVRSVNSLMVASLTYKDKVYLNVTTDNTSLDDFHVNGGELILIHQNPGEFCVL
notes: Glycosylated; about 50% of the non-reduced protein ran as a dimer; also called hPD-1-Fc-OX40L
As for B3, the “increase in IL-2 from baseline (no SL-279252) to 5 ug/mL of SL-279252, T cell co-culture with HCC827 (PD-L1high)” value in test [6] is 1.92 fold. Moreover, the “increase in IL-2 from baseline (no SL-279252) to 5 ug/mL of SL-279252, T cell co-culture with PC3 (PD-L1low)” value in test [6] was 1.27 fold. The binding result in test [7] is “no binding”; in test [15], “no binding (tested: 500 nM)”. Further, the Kd was 73 nM in test [8]; 2.08 nM in test [12]; 1.24 nM in [13]; 0.246 nM in test [14]; 9.17 nM in test [16]. In addition, the koff turned out to be 0.00234 s⁻¹ in [2], 1.9e-05 s⁻¹ in test [9], 0.000176 s⁻¹ in [10] and 6.7e-05 s⁻¹ in [11]. Also, the kon came out at 255000 M⁻¹ s⁻¹ in [2], 77300 M⁻¹ s⁻¹ in test [9], 84500 M⁻¹ s⁻¹ in [10] and 54000 M⁻¹ s⁻¹ in test [11]. For the same molecule, in [12], the “off-rate, fold slower than recombinant PD-1-Fc” value was around 20 fold.

B4: recombinant human OX40L-Fc (Fc fusion, UniProt P23510 51-183, looked up)
chain: QVSHRYPRIQSIKVQFTEYKKEKGFILTSQKEDEIMKVQNNSVIINCDGFYLISLKGYFSQEVNISLHYQKDEEPLFQLKKVRSVNSLMVASLTYKDKVYLNVTTDNTSLDDFHVNGGELILIHQNPGEFCVL
notes: Positive control in SPR; not shown: Fc
As to B4, the Kd in test [9], in [17] and in test [18] was 9.28 nM each time. For the same molecule, the koff in test [9], in test [17] and in test [18] was 0.00069 s⁻¹ each time.
